Measured values reported in US7030099B2, “Tumor specific promoters of the midkine gene that allow for selective expression in P53-inactivated cells” (Research Corporation Technologies, Inc., priority 2000, dated 2006).

How the values were obtained:
[1] = tested on: lung cancer cells QG-56; assay: In vitro sensitivity to GCV of MK0.6-TK-introduced cells; type: cell-based, human
Description: (§1) (2) Then, the tumor-specificity of this MK0.6 promoter was examined using the human tumor cells and normal fibroblasts. As described above, MK0.6-TK was introduced into various types of cells using lipofectin, and they were cultured in the presence of 400 μg/ml of G418 for ten days to obtain cells in which the MK0.6-TK gene was expressed. Thus, these gene-introduced cells were plated at 500 cells/well of 96-well culture plates, and were cultured in the presence of various concentrations of GCV for seven days. The survival rate of the cells was examined using the Cell Counting Kit-8. The results obtained are shown in FIG. 3A, FIG. 3B and FIG. 3C.

[2] = as currently used for treatment of cytomegalovirus infections; cited from earlier work
[3] = tested on: lung cancer cells QG-56, neuroblastoma NGP; assay: CAT assay of promoter transcription activity, tumor cells; type: cell-based, human
Description: (§2) Using the above plasmid, or a plasmid pCAT-Control (manufactured by Promega) having the promoter of SV40 virus, and a plasmid pCAT-Basic (manufactured by Promega) containing no promoters, gene introduction was performed on the lung cancer cells QG-56, the neuroblastoma NGP, and the normal human fibroblasts MRC-5 that were being cultured in a DMEM (Sigma) supplemented with 10% bovine fetal serum. After 10 μg each of these plasmids and lipofectin (Life Technologies) were mixed, it was allowed to stand at room temperature for 30 minutes to form a complex. Then the complex, after removing the bovine fetal serum therefrom, was contacted with the cells. Eight hours later culture medium supplemented with bovine fetal serum was added, cultured for 40 hours, and then the gene-introduced cells were disrupted by ultrasonication. After centrifugation, the supernatants were used to examine their transcription activities with the known CAT assay method (Gorman, C M et al., Mol. Cell. Biol., 2:1044–1051, 1982) using [^14C]-chloramphenicol and acetyl CoA. At this time, in order to normalize the efficiency of gene introduction, 1 μg of the β-galactosidase gene (pCH110, manufactured by Amersham) was introduced at the same time, and the β-galactosidase activity (Heromel, P. et al., Cell, 39:653–662, 1984) was determined.

[4] = tested on: normal human fibroblasts MRC-5; assay: CAT assay of promoter transcription activity, normal cells; type: cell-based; details: FIG. 1
Description: as §2

[5] = tested on: immortalized MRC-5 cells (p53 functions inactivated); assay: In vitro sensitivity to GCV of promoter-TK gene-introduced cells (Cell Counting Kit-8 survival); type: cell-based, human; details: HSV-TK gene powered by the promoter, GCV seven days, FIG. 2B
Description: (§3) (1) In order to examine cytotoxic effects by the transcription activity of the promoter obtained from the midkine gene, herpes simplex virus thymidine kinase (HSV-TK), a suicide gene, was ligated downstream of MK0.6 and MK2.3, and the plasmid was introduced in cells, and a prodrug gancyclovir (GCV) was added into the culture medium of the gene-introduced cells. The method of determining the cytotoxic effect by this system is as described in Moolten, FL. Cancer Gene Ther., 1:279–287, 1994.
(§4) First, the CMV promoter of pcDNA3 (manufactured by Invitrogen) was removed using NruI and HindIII sites, to which MK2.3 or Mk0.6 was inserted, and then using the EcoRV site, the HSV-TK gene excised from pMK (Brinster, R L et al., Cell, 27:223–231, 1981) with BglI and EcoRI was inserted. Each of the plasmids thus obtained (MK2.3-TK and MK0.6-TK) was introduced, as described above, using lipofectin into MRC-5 which are normal cells, or MRC-5 cells that had been immortalized by inactivating the functions of the p53 tumor suppressor gene. In order to utilize the expression of the Neo gene contained in pcDNA3 as drug resistant markers, the cells were cultured with 400 μg/ml of G418 (manufactured by Life Technologies) for ten days to establish the cells that expressed MK2.3-TK and MK0.6-TK, respectively. These cells were then plated at 500 cells/well of 96-well culture plates, and were cultured in the presence of various concentrations of GCV (manufactured by F. Hoffman-La Roche) for seven days. The survival rate of the cells was examined using the Cell Counting Kit-8 (manufactured by Dojin Kagaku). The survival of the cells at a GCV concentration of 0 μg/ml was set as 100%, and the survival for each experiment group is shown in terms of percentage in FIG. 2A and FIG. 2B.

[6] = tested on: normal MRC-5 cells; assay: as above; type: cell-based, human; details: HSV-TK gene controlled by the promoter, GCV seven days, FIG. 2A
Description: as §3, §4

[7] = tested on: neuroblastoma NGP cells; assay: In vitro sensitivity to GCV of MK0.6-TK-introduced cells; type: cell-based, human; details: MK0.6-TK-introduced NGP; GCV seven days; FIG. 3B
Description: as §1

[8] = tested on: normal fibroblasts HEF; assay: as above; type: cell-based, human; details: MK0.6-TK-introduced HEF; GCV seven days; FIG. 3C
Description: as §1

[9] = tested on: immortalized MRC-5 cells; assay: Luciferase assay of MK0.6 promoter activity under expression of wild-type p53; type: cell-based, human; details: FIG. 5
Source text: In at least about 50% of human solid tumors, the loss of p53 gene functions is observed, and forced expression of-the wild-type p53 gene in tumors arrests tumor growth in some cases. Thus, using the MRC-5 cells that had been immortalized by destroying the functions of the p53 gene, DNA plasmid was introduced in which the luciferase gene, a reporter gene, was ligated downstream of the MK0.6 promoter, and the transcription activity of the MK0.6 promoter under the expression of the wild-type p53 gene was examined.
For this purpose, the MK0.6-CAT plasmid prepared in Example 1 was cleaved with HindIII, and the MK0.6 kb gene obtained was inserted into the HindIII site of pGL2-Basic (manufactured by Promega). […] After 48 hours-culture, the cells were disrupted using the Dual-Luciferase Reporter Assay System (manufactured by Promega), and the Firefly luciferase activity therein was determined using the reagents in the same kit. In order to normalize the efficiency of transfection, 1 μg of pRL-TK plasmid (manufactured by Promega) was included in each transfection, and the Renilla luciferase activity by the TK promoter was determined, based on which the Firefly luciferase activity was corrected.

[10] = tested on: lung cancer cells QG-56, PC-1, human breast cancer cells BT549; assay: Luciferase assay of midkine promoter activity in tumor cells; type: cell-based; details: FIG. 6
Source text: Using the PCR method based on the information of the midkine genomic DNA, a DNA fragment that corresponds to a 335 bp region (MK335bp) from −285 to +50 and that has the base sequence set forth in SEQ ID NO: 4 was synthesized, and after confirming the sequences, it was inserted into pCR2.1 (manufactured by Invitrogen). After excising MK335bp from this DNA, it was ligated to pGL2-Basic (manufactured by Promega) to construct a plasmid for detecting promoter activity. Furthermore, using pGL2-Control (manufactured by Promega) containing the promoter of SV40 virus and pGL2-Basic containing a similarly constructed 609 bp midkine promoter (MK0.6), promoter activity was examined by the following method.
The lung cancer cells QG-56, PC-1, and human breast cancer cells BT549 that were cultured in DMEM (Sigma) supplemented with 10% bovine fetal serum, were transfected. After 10 μg each of these plasmids and lipofectin (manufactured by Life Technologies) were mixed, it was allowed to stand at room temperature for 30 minutes to form a complex. […] In order to normalize the efficiency of gene introduction, 1 μg of pRL-TK plasmid (manufactured by Promega) was included in each gene introduction group, and the Renilla luciferase activity by the TK promoter was determined, based on which the Firefly luciferase activity was corrected.

Which “concentration at which the cytotoxic effects by GCV was obtained” value ([1]; MK0.6-TK-introduced tumor cells (QG-56, NGP)) does the source give for `Nc1nc(O)c2ncn(COC(CO)CO)c2n1` [GCV, gancyclovir, reference compound] here?
The value was 100 ng/mL.

What about the “maximum blood concentration of GCV” value [2] of the same molecule?
The value was 1 µg/mL.

B1: MK0.6: 0.6 kb (609 bp, −559 to +50) of the human midkine genomic gene, base sequence SEQ ID NO: 1 (nucleic acid, listed as Homo sapiens)
DNA: GCTTCCCTGCCCACCCGCGGAAACCGCCCCAGGTGGCCGCGCCCCCTCCCCAGCAGCCAGCAGGGCGCCAGGGCTGAGCCGGCCGTGGAGGGGAGCGGGTCCCGGGGGTTATACAGGCGCCGGGCGTCCGCGGCAGGCAAGAGAAGCTGAGGCCTGAGAACGGCCCGGGCCTTGGCGTACGGCAGGGGACGACCTGGGATGGGGGCAGCGGGCGGCGGCGCAGGGAGTGGGCCGGGGCCGGTGTGCGCGGGCGGGACGGGGCCGGGGTCGGGAGACCACCGCTCGGAAGATGGGGCCGGGAGAGGCCGCCGTCGCAGCGCAGAGGGCACCGGCGGGGAGACGCGAGGACGCGGGGCCGGGAACACGGACGCCGGAGTAGAAGCGCGGGGGGGGCGGGCTGGAGCGGGGGCGGGGACGCCGGGGTCGGGGGCGGTGCGGGTTTGAGGGGAGGGGGCGGGGCGGGTCCTTCCCTGGGGGGGTGGGGAGAGGGGGCGGGGGCCCATGTGACCGGCTCAGACCGGTTCTGGAGACAAAAGGGGCCGCGGCGGCCGGAGCGGGACGGGCCCGGCGCGGGAGGGAGCGAAGCAGCGCGGGCAGCGAGCGAGTGAG
For B1, which “tumor-specificity of promoter activity” value ([3]; tumor cells versus normal cells) is on record?
The value was “specifically strong in tumors”.

And the “transcriptional activity compared with other midkine promoter fragments” value ([3]; tumor cells, FIG. 1)?
The value was “more potent in the tumor cells than MK1.0 or MK2.3”.

And the “transcriptional activity compared with promoter of SV40 virus” value ([3]; tumor cells, FIG. 1)?
The value was “more potent than the promoter of SV40 virus in the tumor cells”.

And the “transcriptional activity compared with other midkine promoter fragments” value [4]?
Its value is “rather decreased in the normal cells”.

What about the “sensitivity to GCV compared to that of the parent strain” value [5] of the same molecule?
Its value is 1000 fold.

What about the “sensitivity to GCV compared to that of the parent strain” value [6] of the same molecule?
Its value is “identical with that of the parent strain”.

And the “sensitivity to GCV compared to parent strain” value ([1]; MK0.6-TK-introduced QG-56, GCV seven days, FIG. 3A)?
The value was 1000 fold.

And the “sensitivity to GCV compared to parent strain” value [7]?
The value was 1000 fold.

And the “sensitivity to GCV compared to parent strain” value [8]?
The value was “remained the same”.

And the “MK0.6 promoter activity with increasing amounts of CMV-p53 plasmid” value ([9]; CMV-p53 0–1 μg co-transfected)?
Its value is “decreased”.

And the “MK0.6 promoter activity with control CMV-p53R plasmid” value ([9]; CMV-p53R 0–1 μg co-transfected)?
The value was “no changes”.

B2: MK335bp: 335 bp midkine region from −285 to +50, base sequence SEQ ID NO: 4 (nucleic acid, listed as Homo sapiens)
DNA: ACCACCGCTCGGAAGATGGGGCCGGGAGAGGCCGCCGTCGCAGCGCAGAGGGCACCGGCGGGGAGACGCGAGGACGCGGGGCCGGGAACACGGACGCCGGAGTAGAAGCGCGGGGGGGGCGGGCTGGAGCGGGGGCGGGGACGCCGGGGTCGGGGGCGGTGCGGGTTTGAGGGGAGGGGGCGGGGCGGGTCCTTCCCTGGGGGGGTGGGGAGAGGGGGCGGGGGCCCATGTGACCGGCTCAGACCGGTTCTGGAGACAAAAGGGGCCGCGGCGGCCGGAGCGGGACGGGCCCGGCGCGGGAGGGAGCGAAGCAGCGCGGGCAGCGAGCGAGTGAG
For B2, which “promoter activity compared with MK0.6” value [10] is on record?
Its value is “almost the same activity as that of MK0.6”.
